In IntAct's records for PubMed 27820671:

B1: LIM/homeobox protein Lhx4 (Homo sapiens), Q969G2 (parent)
chain: MMQSATVPAEGAVKGLPEMLGVPMQQIPQCAGCNQHILDKFILKVLDRHWHSSCLKCADCQMQLADRCFSRAGSVYCKEDFFKRFGTKCTACQQGIPPTQVVRKAQDFVYHLHCFACIICNRQLATGDEFYLMEDGRLVCKEDYETAKQNDDSEAGAKRPRTTITAKQLETLKNAYKNSPKPARHVREQLSSETGLDMRVVQVWFQNRRAKEKRLKKDAGRHRWGQFYKSVKRSRGSSKQEKESSAEDCGVSDSELSFREDQILSELGHTNRIYGNVGDVTGGQLMNGSFSMDGTGQSYQDLRDGSPYGIPQSPSSISSLPSHAPLLNGLDYTVDSNLGIIAHAGQGVSQTLRAMAGGPTSDISTGSSVGYPDFPTSPGSWLDEMDHPPF
partner: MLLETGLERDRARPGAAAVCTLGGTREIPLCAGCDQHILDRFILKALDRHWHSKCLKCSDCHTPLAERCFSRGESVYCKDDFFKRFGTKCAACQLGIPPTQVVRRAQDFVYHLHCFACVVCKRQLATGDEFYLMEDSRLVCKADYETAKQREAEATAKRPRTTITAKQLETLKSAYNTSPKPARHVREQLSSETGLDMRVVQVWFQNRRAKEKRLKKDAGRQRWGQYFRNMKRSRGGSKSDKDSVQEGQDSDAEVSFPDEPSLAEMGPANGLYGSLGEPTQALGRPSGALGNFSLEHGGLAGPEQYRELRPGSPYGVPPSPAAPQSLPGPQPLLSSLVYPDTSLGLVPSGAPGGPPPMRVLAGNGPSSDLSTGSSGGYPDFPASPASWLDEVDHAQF
B2: LIM/homeobox protein Lhx4 (Homo sapiens), Q969G2 (parent)
chain: B1 chain
partner: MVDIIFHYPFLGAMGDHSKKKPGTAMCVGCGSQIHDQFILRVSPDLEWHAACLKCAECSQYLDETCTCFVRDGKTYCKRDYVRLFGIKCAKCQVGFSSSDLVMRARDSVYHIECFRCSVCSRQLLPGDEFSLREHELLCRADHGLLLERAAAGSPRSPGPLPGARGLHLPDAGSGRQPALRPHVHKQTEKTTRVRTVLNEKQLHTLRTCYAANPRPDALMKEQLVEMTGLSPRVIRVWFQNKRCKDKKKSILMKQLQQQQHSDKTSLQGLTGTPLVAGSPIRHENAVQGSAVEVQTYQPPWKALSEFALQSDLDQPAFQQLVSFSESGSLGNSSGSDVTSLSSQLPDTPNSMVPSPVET

Variants of: B1
Conditions: with lhx3_human LHX3, Q9UBR4

Row | effect of a mutation on the interaction | Variant
1 | decreasing interaction strength | MMQSATVPAEGAVKGLPEMLGVPMQQIPQCAGCNQHILDKFILKVLDRHWHSSCLKAADAQMQLADRCFSRAGSVYCKEDFFKRFGTKCTACQQGIPPTQVVRKAQDFVYHLHCFACIICNRQLATGDEFYLMEDGRLVCKEDYETAKQNDDSEAGAKRPRTTITAKQLETLKNAYKNSPKPARHVREQLSSETGLDMRVVQVWFQNRRAKEKRLKKDAGRHRWGQFYKSVKRSRGSSKQEKESSAEDCGVSDSELSFREDQILSELGHTNRIYGNVGDVTGGQLMNGSFSMDGTGQSYQDLRDGSPYGIPQSPSSISSLPSHAPLLNGLDYTVDSNLGIIAHAGQGVSQTLRAMAGGPTSDISTGSSVGYPDFPTSPGSWLDEMDHPPF [C57A;C60A]
2 | with no effect | MMQSATVPAEGAVKGLPEMLGVPMQQIPQCAGCNQHILDKFILKVLDRHWHSSCLKCADCQMQLVDRCFSRAGSVYCKEDFFKRFGTKCTACQQGIPPTQVVRKAQDFVYHLHCFACIICNRQLATGDEFYLMEDGRLVCKEDYETAKQNDDSEAGAKRPRTTITAKQLETLKNAYKNSPKPARHVREQLSSETGLDMRVVQVWFQNRRAKEKRLKKDAGRHRWGQFYKSVKRSRGSSKQEKESSAEDCGVSDSELSFREDQILSELGHTNRIYGNVGDVTGGQLMNGSFSMDGTGQSYQDLRDGSPYGIPQSPSSISSLPSHAPLLNGLDYTVDSNLGIIAHAGQGVSQTLRAMAGGPTSDISTGSSVGYPDFPTSPGSWLDEMDHPPF [A65V]

Variants of: B2
Conditions: with isl2_human ISL2, Q96A47

Row | effect of a mutation on the interaction | Variant
3 | with no effect | MMQSATVPAEGAVKGLPEMLGVPMQQIPQCAGCNQHILDKFILKVLDRHWHSSCLKCADCQMQLVDRCFSRAGSVYCKEDFFKRFGTKCTACQQGIPPTQVVRKAQDFVYHLHCFACIICNRQLATGDEFYLMEDGRLVCKEDYETAKQNDDSEAGAKRPRTTITAKQLETLKNAYKNSPKPARHVREQLSSETGLDMRVVQVWFQNRRAKEKRLKKDAGRHRWGQFYKSVKRSRGSSKQEKESSAEDCGVSDSELSFREDQILSELGHTNRIYGNVGDVTGGQLMNGSFSMDGTGQSYQDLRDGSPYGIPQSPSSISSLPSHAPLLNGLDYTVDSNLGIIAHAGQGVSQTLRAMAGGPTSDISTGSSVGYPDFPTSPGSWLDEMDHPPF [A65V]
4 | decreasing interaction strength | MMQSATVPAEGAVKGLPEMLGVPMQQIPQCAGCNQHILDKFILKVLDRHWHSSCLKAADAQMQLADRCFSRAGSVYCKEDFFKRFGTKCTACQQGIPPTQVVRKAQDFVYHLHCFACIICNRQLATGDEFYLMEDGRLVCKEDYETAKQNDDSEAGAKRPRTTITAKQLETLKNAYKNSPKPARHVREQLSSETGLDMRVVQVWFQNRRAKEKRLKKDAGRHRWGQFYKSVKRSRGSSKQEKESSAEDCGVSDSELSFREDQILSELGHTNRIYGNVGDVTGGQLMNGSFSMDGTGQSYQDLRDGSPYGIPQSPSSISSLPSHAPLLNGLDYTVDSNLGIIAHAGQGVSQTLRAMAGGPTSDISTGSSVGYPDFPTSPGSWLDEMDHPPF [C57A;C60A]
